B1: Sodium-dependent dopamine transporter (Homo sapiens), Q01959 (parent)
chain: MSKSKCSVGLMSSVVAPAKEPNAVGPKEVELILVKEQNGVQLTSSTLTNPRQSPVEAQDRETWGKKIDFLLSVIGFAVDLANVWRFPYLCYKNGGGAFLVPYLLFMVIAGMPLFYMELALGQFNREGAAGVWKICPILKGVGFTVILISLYVGFFYNVIIAWALHYLFSSFTTELPWIHCNNSWNSPNCSDAHPGDSSGDSSGLNDTFGTTPAAEYFERGVLHLHQSHGIDDLGPPRWQLTACLVLVIVLLYFSLWKGVKTSGKVVWITATMPYVVLTALLLRGVTLPGAIDGIRAYLSVDFYRLCEASVWIDAATQVCFSLGVGFGVLIAFSSYNKFTNNCYRDAIVTTSINSLTSFSSGFVVFSFLGYMAQKHSVPIGDVAKDGPGLIFIIYPEAIATLPLSSAWAVVFFIMLLTLGIDSAMGGMESVITGLIDEFQLLHRHRELFTLFIVLATFLLSLFCVTNGGIYVFTLLDHFAAGTSILFGVLIEAIGVAWFYGVGQFSDDIQQMTGQRPSLYWRLCWKLVSPCFLLFVVVVSIVTFRPPHYGAYIFPDWANALGWVIATSSMAMVPIYAAYKFCSLPGSFREKLAYAIAPEKDRELVDRGEVRQFTLRHWLKV
partner: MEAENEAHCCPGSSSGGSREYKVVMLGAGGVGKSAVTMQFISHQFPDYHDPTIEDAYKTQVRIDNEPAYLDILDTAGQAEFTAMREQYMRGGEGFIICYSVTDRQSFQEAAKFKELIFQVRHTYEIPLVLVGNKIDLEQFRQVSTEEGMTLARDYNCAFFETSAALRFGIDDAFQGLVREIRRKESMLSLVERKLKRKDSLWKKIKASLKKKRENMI

One variant from IntAct's records for PubMed 21957239 can be followed below.

The assay covers variants of B1. Conditions: with rit2_rat Rit2, Q5BJQ5.
In the case of F587A;R588A;E589A;K590A, the “effect of a mutation on the interaction” value was “increasing interaction strength”.
